Test results as given in the nanobody polyreactivity screen of Harvey et al. (2022).

Assay: yeast display, Sf9 membrane polyspecificity reagent, FACS + sequencing; frameworks hold sequencing errors
Outline: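 Synthetic nanobody libraries on Saccharomyces cerevisiae BJ5465 were galactose-induced for 36–48 hours, stained 1 hour at 4 °C with 10% biotinylated, detergent-solubilized Sf9 membrane reagent and enriched on streptavidin microbeads. FACS then separated cells into low and high (top ~1%) gates by anti-HA (expression) and streptavidin (reagent binding) fluorescence. Genes were colony-PCR amplified, MiSeq 2 × 250 sequenced and CDR-length filtered. A clone's polyreactivity label is that of its gate of origin.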

Sequence	polyreactivity (PSR sort gate)
QVQLVESGGGLVQAGGSLRLSCAASGRIFAVNAMGWYRQAPGKERELVASIRWSGGSTYYADSVKGRFTISRDNAKNTVYLQMNSLKPEDTAVYYCAAVFYLWGQGTQVTVSS	high polyreactivity
QVQLVESGGGLVQAGGSLRLSCAASGRIFAVNAMGWYRQAPGKERELVATIRGSGTSTYYADSVKGRFTISRDNAKNTVYLQMNSLKPEDTAVYYCAARGRYRQFNYWGQGTQVTVSS	high polyreactivity
QVQLVESGGGLVQAGGSLRLSCAASGRIFAVNAMGWYRQAPGNERELVAAITRGGSTNYADSVKGRFTISRDNAKNTVYLQMNSLKPEDTAVYYCAARVYTSPPVRSAPTGYYYWGQGTQVTVSS	high polyreactivity
QVQLVESGGGLVQAGGSLRLSCAASGRIFAWNDMGWYRQAPGKERELLPLFWSGGSTYYADSVKGRFTIARDNAKNTGYLQRNSLKPEDTAVYYCNKDSPPITPYDYWGQGTQVTVSS	low polyreactivity
QVQLVESGGGLVQAGGSLRLSCAASGRIFAWYTMGWYRQAPGKERELVAAISWNGGRTYYADSVKGRFTISRDNAKNTVYLQMNSLKPEDTAVYYCNADWYWRVYWGQGTQVTVSS	high polyreactivity
QVQLVESGGGLVQAGGSLRLSCAASGRIFAYNAMGWYRQAPGKERELVAAIDSGGDTNYADSVKGRFTISRDNAKNTVYLQMNSLKPEDTAVYYCAARLYVLRWYPYDYWGHGTQVTVSS	low polyreactivity
QVQLVESGGGLVQAGGSLRLSCAASGRIFAYNAMGWYRQAPGKERELVAAITWSGGITYYADSVKGRFTISRDNAKNTVYLQMNSLKPEDTAVYYCNVYVSAGEEDEYWGQGTQVTVSS	low polyreactivity
QVQLVESGGGLVQAGGSLRLSCAASGRIFAYNAMGWYRQAPGKERELVAAITWSGSTYYADSVKGRFTISRDNAKNTVYLQMNSLKPEDTAVYYCNAQYRGYWNRGYDYWGQGTQVTVSS	high polyreactivity
QVQLVESGGGLVQAGGSLRLSCAASGRIFAYYAKGWYRQAPRKQRELVAAISSGGNTNYADSVKGRFTISRDNAKKTVYLQMNSLKPEDSAVYYCSAYHFSFGWIRVDDWGQGTQVTVSS	high polyreactivity
QVQLVESGGGLVQAGGSLRLSCAASGRIFAYYVMGWYRQAPAKERELVASISSGGGTYYADSVKGRFTISRDNAKNTVYLQMNSLKPEDTAVYYCAARWLRYVYPDGHLFWYDYWGQGTQVTVSS	high polyreactivity
QVQLVESGGGLVQAGGSLRLSCAASGRIFAYYVMGWYRQGPGKERELVASISSGGGTYYADSVKGRFTISRDNAKNTVYLQMNSLKPEDTAVYYCAARWRRYVYPDGHLFWYDYWGQGTQVTVSS	high polyreactivity
QVQLVESGGGLVQAGGSLRLSCAASGRIFDANAMGWYRQAPGKERELVAANSRRGGRTYYADSVKGRFTISRDNAKNTVYLQMNSLKPEDTAVYYCARVPTRAEDVAGWTGMDYWGQGTQVTVSS	high polyreactivity
QVQLVESGGGLVQAGGSLRLSCAASGRIFDCYAMGWYIQAPGKERELVAAIRASGGRTYYADSVKGRFTISRDNAKNTVYLQMNSLKPEDTAVYYCAADSVKYGGDYWGQGTQVTVSS	high polyreactivity
QVQLVESGGGLVQAGGSLRLSCAASGRIFDDNAMGWYRQAHGKERELVATISSTGGRTYYADSVKGRFTISRDNAKKTVYLQMNSLKPEDTAVYYCAARRLQGGYYYWGQGTQVTVSS	high polyreactivity
QVQLVESGGGLVQAGGSLRLSCAASGRIFDDYDMGWYRQAPGKEREFVAAISTSGGSTYYADSVKGRFTISRDNAKNTVYLQMNSLKPEDTAVYYCATREYRYTGRQSRRYYWGQGTQVTVSS	high polyreactivity
QVQLVESGGGLVQAGGSLRLSCAASGRIFDDYDMGWYRQAPGKERELVAAISFDGGNTYADSVKGRFTISRDNAKNTVYLQMNSLKPEDTAVYYCARDDTSPGYGDQSSNAAYYYWGQGTQVTVSS	low polyreactivity
QVQLVESGGGLVQAGGSLRLSCAASGRIFDGNAMGWYRQAPGKERELVATITRGGRTNYADSVKGRFTISRDNAKNTVYLQMNTLKPEDTAVYYCATSYPGYAYNQAWYPYGYWGQGTQVTVSS	low polyreactivity
QVQLVESGGGLVQAGGSLRLSCAASGRIFDGNTMGWYIPAPGKERELVAAISGGGSTDYADSVKGRFTISRDNAKNTVYLQMNSLKPEDTAVYYCAATTGPVPLKGDYWGQGTQVTVSS	low polyreactivity
QVQLVESGGGLVQAGGSLRLSCAASGRIFDGYAMGWYRQAPGKEWELVASISDDGGSTYYADSVKGRFTISRDNEQNTVYLQLNSLKPDDTAVYYCAAVYRRRSYSFYYWGHGTQVTVSS	high polyreactivity
QVQLVESGGGLVQAGGSLRLSCAASGRIFDGYTMGWYRQAPGKERELVAAITYRSGRTYYADSVKGRFTISRDNAKNTVYLQMNSLKPEDTAVYYCNKVKRSFIVNTDDYCGQGTQVTVSS	high polyreactivity
QVQLVESGGGLVQAGGSLRLSCAASGRIFDHNAMGWYRQAPGKERELVAAITWSGGRTYYADSVKGRFTISRDNAKNTVYLQMNSLKPEDTAVYYCNAPVSRRGGNYWGLGTQVTVSS	high polyreactivity
QVQLVESGGGLVQAGGSLRLSCAASGRIFDIYAMGWYRQAPGKERELVASISWSGDSTYYADSVKGRFTISRDNAKNTVYLEMNSLKPEDTAVYYCAAEGEDTEGYDYDYWGQGTQVTVSS	low polyreactivity

Sequence	polyreactivity (PSR sort gate)
QVQLVESGGGLVQAGGSLRLSCAASGRIFDIYDMGWYIQAPGKERELVAAITSGGNTYYADSVKWRFTISRDNAKNTVYLQMNSLKPEDTAVYYCNAARETRPRDYYWGQGTQVTVSS	low polyreactivity
QVQLVESGGGLVQAGGSLRLSCAASGRIFDKYTMGWYRQAPGTERELVAAISKSGSGTFYADSVKGRFTISRDNAKNTVYLQMNSLKPEDTAVYYCARVYTVGTGRSWRLDYWGQGTQVTVSS	high polyreactivity
QVQLVESGGGLVQAGGSLRLSCAASGRIFDLNAMGWYRQAPGKERELVAAISYSGGRTFYADSVKGRFTISRDNAKNTVYLQMNSLKPEDTAVYYCNARYGKPAYQYRMDYWGQGTQVTVSS	low polyreactivity
QVQLVESGGGLVQAGGSLRLSCAASGRIFDLNAMGWYRQAPGKERELVASITTSTGSTYYADSVKGRFTISRDNAKNTVYLQMNSLKPEDTAVYYCAADKSTHPFPSDPGYGYWGQGTQVTVSS	low polyreactivity
QVQLVESGGGLVQAGGSLRLSCAASGRIFDLNAMGWYRQAPGKERELVATITRSGVSTYYADSVKGRFTISRDNAKNTVYLQLYSLKPEDTAVYYCAKDRYGWGYDYWGQGTQVTVSS	low polyreactivity
QVQLVESGGGLVQAGGSLRLSCAASGRIFDLYAMGWYRQAPGKERELVATISSGGSTYYADSVKVRFTISRDNAKNTVYLQMNSLKPEDTAVYYCAADSWVQFDYWGQGKQVTVSS	low polyreactivity
QVQLVESGGGLVQAGGSLRLSCAASGRIFDNYAMGWYRQAPGKERELVAAITSTGRTNYADSVKGRFTISRDNAKYTVYLQMYSLKPEDTAVYYCNVDYQYARSGHANAYEYYYWGQGTQVTVSS	low polyreactivity
QVQLVESGGGLVQAGGSLRLSCAASGRIFDNYVMGWYRQAPGKERELVAAITWDGTSTYYADSVKGRFTISRDNAKNTVYLQMNSLKPEDTAVYYCAADFYPYSWEEVDYWGQGTQVTVSS	low polyreactivity
QVQLVESGGGLVQAGGSLRLSCAASGRIFDPHAMGWYRPAPGKERELVASSTRRGGSTYYADSVKGRFTSSRDIAKNNVYLQMNSLKPEDTSVYYCARPNLLSGDYWGQGTQVTVSS	high polyreactivity
QVQLVESGGGLVQAGGSLRLSCAASGRIFDPNVMVRYRTAPGKERELVAAIRTSGGRTYYADSVKGRFTISRDNAKNTVYLQMNSLKPEDTAVYYCAALYKGKYDYWGQGTQVNVSS	high polyreactivity
QVQLVESGGGLVQAGGSLRLSCAASGRIFDRNAMGWYRQAPGKERELVARISRTGGSTYYADSVKGRFTISRDNAKNTVYLQMNSLKPEDTAVYYCAASRGGGYDYWGQGTQVTVSS	high polyreactivity
QVQLVESGGGLVQAGGSLRLSCAASGRIFDRNAMGWYRQAPGTERELVAAISRRGGSTYYADSVKGRFTISRDNAMNTVYLQMNSLKPEDTAVYYCNTGYSTRLHDYWGQGTQVTVSS	high polyreactivity
QVQLVESGGGLVQAGGSLRLSCAASGRIFDRYAMGWYRQAPGKEMELVAAISSDANTYYADSVKGRFTISRDNAKNTVYLQMNSLKPEDTAVYYCAKVVKGDHPYDYWGQGTQVTVSS	high polyreactivity
QVQLVESGGGLVQAGGSLRLSCAASGRIFDRYAMGWYRQAPGKERELVAVITGGTGNTYYADSVKGRFTISRDNAKNTVYLQMNSLKPEDTAVYYCNARGGYYKFRYPLYYWGQGTQVTVSS	high polyreactivity
QVQLVESGGGLVQAGGSLRLSCAASGRIFDSNAMGWYRQAPGKERELVAAITYSGGGTFYADSVKGRITISRDNEKNTDYLQMNSLKPEDTAVYYCAARTSGKYRYYYWGQGTQVTVSS	high polyreactivity
QVQLVESGGGLVQAGGSLRLSCAASGRIFDSNDMGWYRQAPGKEREFVAAITSSGGSTYYADSVKGRFTISRDNAKNTVYLQMNSLKPEDTAVYYCAARVYPRPQSYDKRYYWGQGTQVTVSS	low polyreactivity
QVQLVESGGGLVQAGGSLRLSCAASGRIFDSYAMGWYRQAPGKERELVATISWDSATTYYADSVKGRFTISRDNAKNTVYLQMNSLKPEDTAVYYCNTRDLYGYPQVTGYDYWGQGTQVTVSS	low polyreactivity
QVQLVESGGGLVQAGGSLRLSCAASGRIFDTNVMGWYRQAPGTEREFVAAIRWNGGSTNYADSVKGRFTISRDNAKNTVYLQMNSLKPEDTAVYYCAADGSIGWRHIYEYWGQATQVTVSS	low polyreactivity
QVQLVESGGGLVQAGGSLRLSCAASGRIFDVNAMGWYRQAPGKERELVAAITYSDGSTYYADSVKGRFTISRDNAKNTVYLQMNSLKPEDTAVYYCAATQEPVTPQPYGYWGQGTQVTVSS	low polyreactivity
QVQLVESGGGLVQAGGSLRLSCAASGRIFDVYAMGWYRQAPGKERELVAAITGSGGSTYYADSVKGRFTISRDNAKNTVYLQMNSLKPEDTAVYYCNAVGIWFPIRLIVPYDYWGQGTQVTVSS	low polyreactivity
QVQLVESGGGLVQAGGSLRLSCAASGRIFDWYAMGWYRQAPGKERELVAAISTSGANTYYADSVKGRITISRDNAKNTVYLQMNSLKPEDSGVYYCATDPYQPYEGDYWGQGTQVTVSS	low polyreactivity
